Test results as given in patent US20250186597A1, “TARGETED IMMUNE ACTIVATION WITH IL-18 IMMUNOCYTOKINES” (BRIGHT PEAK THERAPEUTICS AG, priority 2023, published 2025).

How the values were obtained:
human PD-L1/B7-H1 = biological target: T1, human PD-L1/B7-H1 (Homo sapiens, UniProt Q9NZQ7); test: PD-L1 binding ELISA assay (Example 5); settings: biotinylated human PD-L1
T1 construct: purchased ACROBiosystems PD1-H82E5-25UG
Experimental: The interaction of the unmodified antibodies and corresponding IL-18 immunocytokines with relevant immune cell associated antigen are measured by ELISA assay. For these studies, Corning high-binding half-area plates (Fisher Scientific, Reinach, Switzerland) are coated overnight at 4° C. with 25 μl of unmodified antibodies corresponding IL-18 immunocytokines at […] in PBS. […] Plate surfaces are blocked with 25 μl of PBS-0.02% Tween20-1% BSA at 37° C. during 1 h. […] ELISA signal is then measured at 450 nm on an ENSPIRE® plate reader from Perkin Elmer (Schwerzenbach, Switzerland).

human PD1 = biological target: T2, human PD1 (Homo sapiens, UniProt Q15116); test: Binding kinetics to PD-1 by Bio-Layer Interferometry (Example 6); settings: BLI, His-tagged human PD1
T2 construct: purchased R&D #8986-PD
T2 sequence (Q15116 25-288): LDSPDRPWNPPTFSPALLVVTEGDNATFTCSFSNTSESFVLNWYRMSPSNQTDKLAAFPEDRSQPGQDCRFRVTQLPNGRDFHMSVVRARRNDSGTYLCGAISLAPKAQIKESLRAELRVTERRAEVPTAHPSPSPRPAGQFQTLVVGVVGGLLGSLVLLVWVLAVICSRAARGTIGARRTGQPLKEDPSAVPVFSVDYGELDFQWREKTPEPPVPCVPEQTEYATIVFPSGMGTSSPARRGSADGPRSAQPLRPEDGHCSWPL
Description: Based on Bio-Layer Interferometry (BLI), Octet® BLI systems enable real-time, label-free analysis for the determination of kinetics and affinity of a ligands to its receptor. Here anti-human IgG FC Capture (AHC) sensors are loaded with the test items (ICs). Sensors are first dipped into a kinetic buffer for baseline measurement, then into an analyte solution, here human PD1, to allow association and again into a buffer solution where the analyte is allowed to come off the ligand (dissociation). Several concentrations of analyte are run in parallel and enable the calculation of affinity parameters: Ka, Kd, KD.
Typically, first, the sensors are regenerated by 3 cycles of dipping into 10 mM glycine solution at pH=2 for 20 seconds, followed by 20 second kinetics buffer and a final 60 seconds in kinetics buffer to establish the initial signal (baseline). Second, the loading column will contain the ligand, here the unmodified PD-1 antibodies and of IL-18 polypeptide conjugated PD-1 antibody, at a fixed concentration determined in the loading scout experiment (20 ug/mL). Then another wash/baseline step allows non immobilized proteins to be washed away. […] After acquisition, the data is analyzed with Data Analysis Studio software (Sartorius). […] Group fitting is then applied to the data series and kinetics parameters are calculated.

[1] = biological target: T3, human Fc gamma receptors I (FcγRI/CD64) (Homo sapiens, UniProt P12314); test: Human FcγR binding ELISA, FcγRI/CD64 (Example 8); settings: ELISA binding affinity
T3 construct: purchased R&D systems 1257-FC-050
T3 sequence (P12314 16-374): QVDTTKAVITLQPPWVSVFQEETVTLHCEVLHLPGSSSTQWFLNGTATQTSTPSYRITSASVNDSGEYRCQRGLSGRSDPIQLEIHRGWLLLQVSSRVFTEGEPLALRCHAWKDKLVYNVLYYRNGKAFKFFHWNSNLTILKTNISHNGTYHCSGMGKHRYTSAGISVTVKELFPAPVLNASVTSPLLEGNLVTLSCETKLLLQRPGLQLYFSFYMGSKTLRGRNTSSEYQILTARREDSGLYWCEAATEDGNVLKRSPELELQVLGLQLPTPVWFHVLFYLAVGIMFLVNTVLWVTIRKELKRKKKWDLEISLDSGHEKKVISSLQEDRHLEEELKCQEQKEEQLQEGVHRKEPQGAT
Experimental: (§1) The interaction of the unmodified and of conjugated antibodies with human Fc gamma receptors I (FcγRI/CD64), with human Fc gamma receptors IIa (FcγRIIa/CD32a), with inhibitory human Fc gamma receptors IIb (FcγRIIb/CD32b), and with human Fc gamma receptors III FcγRIIIa/CD16 were measured by ELISA.
(§2) Briefly, Corning high-binding half-area plates (Fisher Scientific, Reinach, Switzerland) were coated overnight at 4° C. with 25 μl of unmodified and of conjugated anti-PD1 antibodies at 2.5 μg/ml in PBS. […] Plates surfaces were blocked with 25 μl of PBS-0.02% Tween20-1% BSA at 37° C. during 1 h. […] Twenty-five microliters of a 1/500 HRP-anti-His antibody in PBS—0.02% Tween20—0.1% BSA (R&D systems, anti-HIS—HRP Ab, #MAB050H) were added to each well and plates were incubated at Room Temperature during 1 h. […] ELISA signal was then measured at 450 nm on an EnSpire plate reader from Perkin Elmer (Schwerzenbach, Switzerland).

[2] = biological target: T4, human Fc gamma receptors IIa (FcγRIIa/CD32a) (Homo sapiens, UniProt P12318); test: Human FcγR binding ELISA, FcγRIIa/CD32a (Example 8); settings: ELISA binding affinity
T4 construct: purchased R&D systems 9595-CD-050
T4 sequence (P12318 34-317): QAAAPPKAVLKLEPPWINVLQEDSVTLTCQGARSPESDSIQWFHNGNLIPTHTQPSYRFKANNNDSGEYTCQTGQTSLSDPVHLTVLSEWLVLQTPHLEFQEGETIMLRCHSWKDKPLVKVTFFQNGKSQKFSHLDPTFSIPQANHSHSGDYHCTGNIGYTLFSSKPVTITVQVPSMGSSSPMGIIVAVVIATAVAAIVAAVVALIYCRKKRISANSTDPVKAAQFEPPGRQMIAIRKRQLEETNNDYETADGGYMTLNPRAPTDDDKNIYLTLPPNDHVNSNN
Experimental: as §1, §2

[3] = biological target: T5, human Fc gamma receptors IIb (FcγRIIb/CD32b) (Homo sapiens, UniProt P31994); test: Human FcγR binding ELISA, FcγRIIb/CD32b (Example 8); settings: ELISA binding affinity
T5 construct: purchased R&D systems AVI1875-050
T5 sequence (P31994 43-310): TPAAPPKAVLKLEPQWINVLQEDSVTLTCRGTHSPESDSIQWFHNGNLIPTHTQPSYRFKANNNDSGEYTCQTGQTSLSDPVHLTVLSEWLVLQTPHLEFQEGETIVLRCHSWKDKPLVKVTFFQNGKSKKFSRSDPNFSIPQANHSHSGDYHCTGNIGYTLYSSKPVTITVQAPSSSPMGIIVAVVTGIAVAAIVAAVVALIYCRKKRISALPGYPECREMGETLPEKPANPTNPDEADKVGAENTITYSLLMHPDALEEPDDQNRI
Experimental: as §1, §2

[4] = biological target: T6, human Fc gamma receptors III FcγRIIIa/CD16 (Homo sapiens, UniProt P08637); test: Human FcγR binding ELISA, FcγRIIIa/CD16 (Example 8); settings: ELISA binding affinity
T6 construct: purchased R&D systems 4325-FC-050
T6 sequence (P08637 17-254): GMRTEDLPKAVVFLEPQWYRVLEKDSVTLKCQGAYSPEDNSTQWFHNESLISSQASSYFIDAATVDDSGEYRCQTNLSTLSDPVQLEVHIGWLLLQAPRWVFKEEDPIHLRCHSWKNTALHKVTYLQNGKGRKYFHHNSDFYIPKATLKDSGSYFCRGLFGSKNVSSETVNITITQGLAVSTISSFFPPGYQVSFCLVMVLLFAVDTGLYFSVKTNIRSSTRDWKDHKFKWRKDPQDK
Experimental: as §1, §2

[5] = biological target: T7, human neonatal Fc receptor (FcRn) (Homo sapiens, UniProt P55899); test: Human FcRn binding AlphaLISA at pH 6 (Example 9)
T7 construct: purchased Perkin Elmer AL3095C
T7 sequence (P55899 24-297 limits assumed): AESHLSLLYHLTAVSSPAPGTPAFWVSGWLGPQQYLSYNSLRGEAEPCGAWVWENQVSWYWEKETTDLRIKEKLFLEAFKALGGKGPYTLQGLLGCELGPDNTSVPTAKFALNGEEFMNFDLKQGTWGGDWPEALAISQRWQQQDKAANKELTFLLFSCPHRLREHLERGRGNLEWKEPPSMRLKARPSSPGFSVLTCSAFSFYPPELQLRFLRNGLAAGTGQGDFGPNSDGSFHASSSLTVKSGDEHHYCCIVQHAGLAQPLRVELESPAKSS
T7 sequence (P61769 21-119 partner): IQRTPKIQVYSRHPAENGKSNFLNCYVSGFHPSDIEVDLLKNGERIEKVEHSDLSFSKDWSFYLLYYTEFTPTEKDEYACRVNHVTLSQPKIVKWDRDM
Experimental: The interaction of the unmodified and of conjugated anti-PD1 antibodies with the human neonatal Fc receptor (FcRn) at pH 6 was measured using the AlphaLISA® Human FcRn Binding Kit (AL3095C) from Perkin Elmer (Schwerzenbach, Switzerland). […] When reference IgG binds to FcRn, donor and acceptor beads come into proximity enabling the transfer of singlet oxygen that trigger a cascade of energy transfer reactions in the acceptor beads, resulting in a sharp peak of light emission at 615 nm. Addition of a free IgG antibodies into the AlphaLISA® mixture creates a competition for the binding of FcRn to the reference antibody resulting in a loss of signal.
After 90 min at 23° C. in the dark, AlphaLISA® signal was measured on an EnSpire plate reader (Excitation at 680 nm, Emission at 615 nm) from Perkin Elmer (Schwerzenbach, Switzerland).

T1 sequence (Q9NZQ7 19-290): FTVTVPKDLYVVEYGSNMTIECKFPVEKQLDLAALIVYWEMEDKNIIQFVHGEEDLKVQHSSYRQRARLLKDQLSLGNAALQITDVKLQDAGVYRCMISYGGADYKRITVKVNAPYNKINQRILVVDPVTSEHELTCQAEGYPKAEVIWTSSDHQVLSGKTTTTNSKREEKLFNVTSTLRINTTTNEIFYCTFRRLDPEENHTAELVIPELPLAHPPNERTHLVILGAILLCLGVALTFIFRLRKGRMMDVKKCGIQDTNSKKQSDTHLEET

## LZM-009: anti-PD-1 antibody, VH SEQ ID NO: 376, VL SEQ ID NO: 377 [reference compound]
Human PD-L1/B7-H1
  Kd: > 0.1 µM
Human PD1
  ka: 342000 M⁻¹ s⁻¹
  kd: 0.0077 s⁻¹
[1]
  Kd: 0.000315 µM
[2]
  Kd: 1.35 µM
[3]
  Kd: 2.63 µM
[4]
  Kd: 1.71 µM
[5]
  Kd: 0.006 µM
